The source of these data is US20210123036A1 (UNIVERSITY OF LIVERPOOL, published 2021).

Where no end group is shown, it is not given here.

Test [1] deals with type I collagen gelatin (skin gelatin). In words: ELISA-type plate binding assay, biotinylated protein on gelatin-coated plate. For orientation: In an ELISA, binding on a coated surface is turned into a signal by an enzyme label.
The target of test [2] is T1, type II collagen gelatin.
T1 construct: Denatured collagen, coated on plates (ELISA-type assay, cell adhesion) or added in solution (NMR); also called type II gelatin; collagen type II gelatin
The description is as above.

For test [3], the target named is type I collagen gelatin (skin gelatin). In words: ELISA-type plate binding assay, comparison of apparent Kd.
Test [4] has as its target T1, type II collagen gelatin. Description: cell-based or functional assay.
For test [5], the target named is T1, type II collagen gelatin. In words: ELISA-type plate binding assay, comparison of Kd (summary of the Examples).
Test [6] concerns the target T1, type II collagen gelatin. Description: ELISA-type plate binding assay, comparison of Kd. On the procedure:
The chimeric peptides were assessed for binding to collagen type I and type II gelatin using the plate binding assay (described in the materials and methods section). […] A peptide comprising three modules corresponding to module 1 was not tested.

Chain of type I collagen gelatin (skin gelatin) (P02453 162-1217, chain 1 of 2): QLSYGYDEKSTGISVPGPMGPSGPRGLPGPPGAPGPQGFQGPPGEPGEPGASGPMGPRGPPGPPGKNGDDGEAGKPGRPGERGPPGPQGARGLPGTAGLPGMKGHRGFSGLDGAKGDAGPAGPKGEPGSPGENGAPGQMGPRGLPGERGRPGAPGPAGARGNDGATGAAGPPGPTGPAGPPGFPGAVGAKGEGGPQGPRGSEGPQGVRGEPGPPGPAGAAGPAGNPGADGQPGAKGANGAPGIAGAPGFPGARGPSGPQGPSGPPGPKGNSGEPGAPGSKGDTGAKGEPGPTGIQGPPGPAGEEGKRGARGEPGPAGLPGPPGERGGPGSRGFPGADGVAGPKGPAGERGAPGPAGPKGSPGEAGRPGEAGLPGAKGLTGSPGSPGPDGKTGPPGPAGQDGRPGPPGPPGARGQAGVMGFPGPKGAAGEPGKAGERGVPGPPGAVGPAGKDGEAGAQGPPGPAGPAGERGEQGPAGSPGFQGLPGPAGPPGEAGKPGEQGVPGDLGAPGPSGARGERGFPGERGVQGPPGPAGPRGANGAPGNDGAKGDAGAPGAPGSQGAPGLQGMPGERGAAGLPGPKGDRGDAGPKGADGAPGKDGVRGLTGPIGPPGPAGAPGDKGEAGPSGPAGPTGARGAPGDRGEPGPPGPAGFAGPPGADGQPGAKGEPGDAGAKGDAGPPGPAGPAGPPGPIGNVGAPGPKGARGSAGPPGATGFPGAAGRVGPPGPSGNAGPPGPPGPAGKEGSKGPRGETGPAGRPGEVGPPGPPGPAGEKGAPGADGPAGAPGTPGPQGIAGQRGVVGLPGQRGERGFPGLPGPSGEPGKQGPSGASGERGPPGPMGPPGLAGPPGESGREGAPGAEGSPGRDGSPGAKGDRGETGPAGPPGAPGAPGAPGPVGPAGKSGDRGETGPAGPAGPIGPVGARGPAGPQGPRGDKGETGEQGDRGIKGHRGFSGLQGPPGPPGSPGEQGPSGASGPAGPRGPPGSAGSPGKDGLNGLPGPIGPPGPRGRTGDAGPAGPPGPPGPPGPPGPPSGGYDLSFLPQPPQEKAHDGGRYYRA
Chain of type I collagen gelatin (skin gelatin) (P02465 80-1117, chain 2 of 2, further chain): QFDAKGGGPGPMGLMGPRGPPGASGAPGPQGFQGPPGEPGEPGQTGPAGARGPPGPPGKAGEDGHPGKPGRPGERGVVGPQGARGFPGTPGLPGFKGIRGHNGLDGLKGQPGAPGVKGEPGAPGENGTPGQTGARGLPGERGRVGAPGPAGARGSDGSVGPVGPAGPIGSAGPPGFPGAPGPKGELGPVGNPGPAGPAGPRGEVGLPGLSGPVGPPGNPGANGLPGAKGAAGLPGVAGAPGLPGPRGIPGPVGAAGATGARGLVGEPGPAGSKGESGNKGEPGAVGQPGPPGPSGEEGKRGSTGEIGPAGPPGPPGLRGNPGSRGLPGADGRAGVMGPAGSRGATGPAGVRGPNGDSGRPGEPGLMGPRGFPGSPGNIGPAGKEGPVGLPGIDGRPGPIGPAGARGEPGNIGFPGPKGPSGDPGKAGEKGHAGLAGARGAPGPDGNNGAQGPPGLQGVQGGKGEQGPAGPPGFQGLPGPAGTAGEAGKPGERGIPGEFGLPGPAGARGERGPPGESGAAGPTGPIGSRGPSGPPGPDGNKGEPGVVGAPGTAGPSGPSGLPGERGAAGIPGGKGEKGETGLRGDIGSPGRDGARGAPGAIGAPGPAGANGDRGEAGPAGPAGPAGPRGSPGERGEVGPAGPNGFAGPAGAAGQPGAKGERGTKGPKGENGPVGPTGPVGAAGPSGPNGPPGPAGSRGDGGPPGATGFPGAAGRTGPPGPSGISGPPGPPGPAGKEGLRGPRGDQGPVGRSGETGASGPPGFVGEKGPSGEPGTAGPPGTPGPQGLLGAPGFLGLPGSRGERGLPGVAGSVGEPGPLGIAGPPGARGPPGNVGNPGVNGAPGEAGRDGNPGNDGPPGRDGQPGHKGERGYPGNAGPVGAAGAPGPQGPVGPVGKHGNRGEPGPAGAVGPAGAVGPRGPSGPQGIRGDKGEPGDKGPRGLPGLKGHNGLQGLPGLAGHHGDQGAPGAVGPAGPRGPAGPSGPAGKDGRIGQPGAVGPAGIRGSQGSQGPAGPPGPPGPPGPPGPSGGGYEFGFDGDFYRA

B1: module 2 of the CBD of MMP-2 (other)
chain: AEGQPCKFPFRFQGTSYDSCTTEGRTDGYRWCGTTEDYDRDKKYGFCPE
modifications: cysteine pairing not given here; also: biotinylated for plate binding assay
notes: also called M2
The Kd is the free concentration of one partner at which half of the binding sites on the other are occupied at equilibrium, for simple one-to-one binding. Low readings indicate tighter binding, high ones weaker binding. As to B1, the Kd in test [1] was determined as 3720 nM; in test [2] it was 4260 nM.

B2: collagen binding domain (CBD) of gelatinase A (MMP-2) (other)
chain: ADGEYCKFPFLFNGKEYNSCTDTGRSDGFLWCSTTYNFEKDGKYGFCPHEALFTMGGNAEGQPCKFPFRFQGTSYDSCTTEGRTDGYRWCGTTEDYDRDKKYGFCPETAMSTVGGNSEGAPCVFPFTFLGNKYESCTSAGRSDGKMWCATTANYDDDRKWGFCPD
notes: Expressed in Shuffle T7 E. coli with a His6-SUMO tag that was cleaved off; also called CBD of MMP-2; Full length CBD
As to B2, the values for the Kd in test [1] and in test [2] were 2.58 nM and 20.4 nM, respectively.

B3: module 3 of the CBD of MMP-2 (other)
chain: SEGAPCVFPFTFLGNKYESCTSAGRSDGKMWCATTANYDDDRKWGFCPD
modifications: cysteine pairing not given here; also: biotinylated for plate binding assay
notes: also called M3
As for B3, the Kd in test [1] was determined as 4090 nM; in test [2] it was 12000 nM. In addition, in test [3], the “fold better binding than to type II gelatin” value came out at 3 fold.

B4: conjugate comprising MSCs and the peptide 222 (other)
chain: EGQVVFTMYGNAEGQPCKFPFRFQGTSYDSCTTEGRTDGYRWCGTTEDYDRDKKYGFCPHEALFTMGGNAEGQPCKFPFRFQGTSYDSCTTEGRTDGYRWCGTTEDYDRDKKYGFCPETALFTMGGNAEGQPCKFPFRFQGTSYDSCTTEGRTDGYRWCGTTEDYDRDKKYGFCPDQGYSL
modifications: carboxylic residues cationised by covalent coupling of N,N'-dimethyl-1,3-propanediamine (DMPA); corona of glycolic acid ethoxylate 4-nonylphenyl ether surfactant; incorporated into the membrane of mesenchymal stem cells
On to B4, for which the “median % adhesion relative to plastic” value in test [4] was 224%.

B5: peptide 222 comprising three modules corresponding to module 2 of the CBD of MMP-2 (designed binder)
chain: B4 chain
notes: Expressed in Shuffle cells with a His6-SUMO tag that was cleaved off
Regarding B5, in test [5], the “fold higher affinity than the naturally occurring CBD of MMP-2” value is roughly 14 fold. Also, the “fold higher affinity than 333” value in test [6] amounted to 10 fold. The “fold higher affinity than the full length CBD” value in test [6] amounted to 10 fold. In addition, the Kd turned out to be 0.497 nM in test [1] and 1.46 nM in test [2].

B6: peptide 333 comprising three modules corresponding to module 3 of the CBD of MMP-2 (designed binder)
chain: EGQVVSTVYGNSEGAPCVFPFTFLGNKYESCTSAGRSDGFLWCATTANYDDDRKWGFCPHEALFTMGGNSEGAPCVFPFTFLGNKYESCTSAGRSDGKRWCATTANYDDDRKWGFCPETAMSTVGGNSEGAPCVFPFTFLGNKYESCTSAGRSDGKMWCATTANYDDDRKWGFCPDQGYSL
B6: the Kd is 0.0159 nM in test [1] and 117 nM in test [2].
